# Biological target: carcinoembryonic antigen (CEA) (UniProt P06731 35-685)
# Experiment: solid-state nanopore (single-molecule); 3.6 M LiCl; 10 nM CEA, 1 uM aptamer; shift in signal distribution; 3.6 M LiCl, 10 mM HEPES-KOH pH 8.0; 1 uM aptamer incubated with 10 nM CEA for 1 h; temperature not stated; nanopore at -50 to -300 mV
# Conditions: protein: commercial
# Sequence of carcinoembryonic antigen (CEA) (P06731 35-685): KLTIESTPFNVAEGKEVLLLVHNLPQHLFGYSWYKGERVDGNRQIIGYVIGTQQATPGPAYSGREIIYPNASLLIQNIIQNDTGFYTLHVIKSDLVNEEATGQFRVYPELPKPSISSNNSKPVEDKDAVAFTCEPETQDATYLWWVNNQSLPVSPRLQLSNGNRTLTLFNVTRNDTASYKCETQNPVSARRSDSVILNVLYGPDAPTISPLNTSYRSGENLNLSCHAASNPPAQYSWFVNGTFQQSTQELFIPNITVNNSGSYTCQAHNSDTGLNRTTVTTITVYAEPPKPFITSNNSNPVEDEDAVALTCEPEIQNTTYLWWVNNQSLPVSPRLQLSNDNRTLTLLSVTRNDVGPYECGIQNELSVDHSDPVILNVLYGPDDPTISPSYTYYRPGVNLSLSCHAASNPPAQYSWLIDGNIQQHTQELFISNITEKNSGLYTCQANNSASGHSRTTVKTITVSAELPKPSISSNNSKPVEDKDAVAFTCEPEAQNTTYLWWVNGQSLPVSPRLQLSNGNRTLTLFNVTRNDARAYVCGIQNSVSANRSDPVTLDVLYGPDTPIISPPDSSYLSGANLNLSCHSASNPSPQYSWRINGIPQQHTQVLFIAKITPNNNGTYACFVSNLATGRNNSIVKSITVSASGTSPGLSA
binder,measurement,value
CEA DNA aptamer (ssDNA) DNA: TCGCGCGAGTCGTCTGGGAGCTACGTTTAGCGAGTCCGACGCTCGGTGCCTCTTCGGGAGGACGATGCGG,binding result,binds

# Source: publication PMC12499889, “Voltage-matrix nanopore profiling for the discrimination of protein mixtures”
